Positions count from the first letter of the chain named. Numbers in names are those of the source.

B1: ribose BP A234C JPW4039 (conjugate, UniProt P02925 26-296, looked up, variant A234C)
Ribose import binding protein …: KDTIALVVSTLNNPFFVSLKDGAQKEADKLGYNLVVLDSQNNPAKELANVQDLTVRGTKILLINPTDSDAVGNAVKMANQANIPVITLDRQATKGEVVSHIASDNVLGGKIAGDYIAKKAGEGAKVIELQGIAGTSAARERGEGFQQAVAAHKFNVLASQPADFDRIKGLNVMQNLLTAHPDVQAVFAQNDEMALGALRALQTAGKSDVMVVGFDGTPDGEKAVNDGKLAATICQLPDQIGAKGVETADKVLKGEKVQAKYPVDLKLVVKQ
modifications: JPW4039 dye conjugate
B2: ribose BP D165C JPW4045 (conjugate, UniProt P02925 26-296, looked up, variant D165C)
Ribose import binding protein …: B1 Ribose import binding protein … with D165C, C234A
modifications: JPW4045 label
B3: ribose BP D165C Acrylodan (conjugate, UniProt P02925 26-296, looked up, variant D165C)
Ribose import binding protein …: B1 Ribose import binding protein … with D165C, C234A
modifications: acrylodan conjugate
B4: ribose BP D165C JPW4042 (conjugate, UniProt P02925 26-296, looked up, variant D165C)
Ribose import binding protein …: B1 Ribose import binding protein … with D165C, C234A
modifications: JPW4042 dye conjugate
B5: ribose BP E192C Fluorescein (conjugate, UniProt P02925 26-296, looked up, variant E192C)
Ribose import binding protein …: B1 Ribose import binding protein … with E192C, C234A
modifications: fluorescein label
B6: ribose BP A234C Acrylodan (conjugate, UniProt P02925 26-296, looked up, variant A234C)
Ribose import binding protein …: B1 Ribose import binding protein …
modifications: acrylodan label
B7: ribose BP A234C JPW4042 (conjugate, UniProt P02925 26-296, looked up, variant A234C)
Ribose import binding protein …: B1 Ribose import binding protein …
modifications: JPW4042 dye conjugate
B8: ribose BP D165C JPW4039 (conjugate, UniProt P02925 26-296, looked up, variant D165C)
Ribose import binding protein …: B1 Ribose import binding protein … with D165C, C234A
modifications: JPW4039 dye conjugate
B9: ribose BP A234C NBD (conjugate, UniProt P02925 26-296, looked up, variant A234C)
Ribose import binding protein …: B1 Ribose import binding protein …
modifications: NBD conjugate
B10: ribose BP E192C JPW4039 (conjugate, UniProt P02925 26-296, looked up, variant E192C)
Ribose import binding protein …: B1 Ribose import binding protein … with E192C, C234A
modifications: JPW4039 dye label
B11: ribose BP L236C JPW4039 (conjugate, UniProt P02925 26-296, looked up, variant L236C)
Ribose import binding protein …: B1 Ribose import binding protein … with C234A, L236C
modifications: JPW4039 dye conjugate
B12: ribose BP E192C NBD (conjugate, UniProt P02925 26-296, looked up, variant E192C)
Ribose import binding protein …: B1 Ribose import binding protein … with E192C, C234A
modifications: NBD dye conjugate
B13: phosphate BP A225C JPW4039 (conjugate, UniProt P0AG82 26-346, looked up, variant A225C)
Phosphate-binding protein PstS: EASLTGAGATFPAPVYAKWADTYQKETGNKVNYQGIGSSGGVKQIIANTVDFGASDAPLSDEKLAQEGLFQFPTVIGGVVLAVNIPGLKSGELVLDGKTLGDIYLGKIKKWDDEAIAKLNPGLKLPSQNIAVVRRADGSGTSFVFTSYLAKVNEEWKNNVGTGSTVKWPIGLGGKGNDGIAAFVQRLPGAIGYVEYAYAKQNNLAYTKLISADGKPVSPTEENFCNAAKGADWSKTFAQDLTNQKGEDAWPITSTTFILIHKDQKKPEQGTEVLKFFDWAYKTGAKQANDLDYASLPDSVVEQVRAAWKTNIKDSSGKPLY
modifications: JPW4039 label
B14: phosphate BP N226C JPW4039 (conjugate, UniProt P0AG82 26-346, looked up, variant N226C)
Phosphate-binding protein PstS: B13 Phosphate-binding protein PstS with C225A, N226C
modifications: JPW4039 dye conjugate
B15: phosphate BP A225C Acrylodan (conjugate, UniProt P0AG82 26-346, looked up, variant A225C)
Phosphate-binding protein PstS: B13 Phosphate-binding protein PstS
modifications: acrylodan conjugate
B16: phosphate BP A225C NBD (conjugate, UniProt P0AG82 26-346, looked up, variant A225C)
Phosphate-binding protein PstS: B13 Phosphate-binding protein PstS
modifications: NBD conjugate
B17: phosphate BP A225C JPW4042 (conjugate, UniProt P0AG82 26-346, looked up, variant A225C)
Phosphate-binding protein PstS: B13 Phosphate-binding protein PstS
modifications: JPW4042 dye conjugate
B18: phosphate BP S39C Fluorescein (conjugate, UniProt P0AG82 26-346, looked up, variant S39C)
Phosphate-binding protein PstS: B13 Phosphate-binding protein PstS with S39C, C225A
modifications: fluorescein conjugate
B19: phosphate BP N226C JPW4045 (conjugate, UniProt P0AG82 26-346, looked up, variant N226C)
Phosphate-binding protein PstS: B13 Phosphate-binding protein PstS with C225A, N226C
modifications: JPW4045 dye conjugate
B20: phosphate BP S39C Acrylodan (conjugate, UniProt P0AG82 26-346, looked up, variant S39C)
Phosphate-binding protein PstS: B13 Phosphate-binding protein PstS with S39C, C225A
modifications: acrylodan conjugate
B21: phosphate BP S39C JPW4039 (conjugate, UniProt P0AG82 26-346, looked up, variant S39C)
Phosphate-binding protein PstS: B13 Phosphate-binding protein PstS with S39C, C225A
modifications: JPW4039 dye conjugate
B22: phosphate BP A225C Fluorescein (conjugate, UniProt P0AG82 26-346, looked up, variant A225C)
Phosphate-binding protein PstS: B13 Phosphate-binding protein PstS
modifications: fluorescein label
B23: phosphate BP S39C NBD (conjugate, UniProt P0AG82 26-346, looked up, variant S39C)
Phosphate-binding protein PstS: B13 Phosphate-binding protein PstS with S39C, C225A
modifications: NBD dye conjugate
B24: phosphate BP N223C Fluorescein (conjugate, UniProt P0AG82 26-346, looked up, variant N223C)
Phosphate-binding protein PstS: B13 Phosphate-binding protein PstS with N223C, C225A
modifications: fluorescein conjugate
B25: phosphate BP S39C JPW4045 (conjugate, UniProt P0AG82 26-346, looked up, variant S39C)
Phosphate-binding protein PstS: B13 Phosphate-binding protein PstS with S39C, C225A
modifications: JPW4045 dye conjugate
B26: phosphate BP S39C JPW4042 (conjugate, UniProt P0AG82 26-346, looked up, variant S39C)
Phosphate-binding protein PstS: B13 Phosphate-binding protein PstS with S39C, C225A
modifications: JPW4042 dye label
B27: phosphate BP N226C JPW4042 (conjugate, UniProt P0AG82 26-346, looked up, variant N226C)
Phosphate-binding protein PstS: B13 Phosphate-binding protein PstS with C225A, N226C
modifications: JPW4042 dye conjugate
B28: phosphate BP A225C JPW4045 (conjugate, UniProt P0AG82 26-346, looked up, variant A225C)
Phosphate-binding protein PstS: B13 Phosphate-binding protein PstS
modifications: JPW4045 label

The first experiment in a line: Fluorescence emission spectra without and with saturating ligand (wavelength shift, ΔIstd, ΔRmax). Also noted: key to ΔIstd: intensity change at λstd normalized to average intensity; key to ΔRmax: ratio change of two emission band areas, unbound vs saturated. The note with it: standard intensity change, unbound vs ligand-saturated. As for the experimental part:
Fluorimetry. All measurements were conducted with an SLM Aminco-Bowman series 2 fluorimeter, with sample stirring at 25° C. Fluorescence emission spectra were acquired with excitation and emission slit widths of 4 and 8 nm, respectively. Photomultiplier tube potential was maintained between 400 and 800 volts. Protein concentrations were in the range of 50 to 1000 nM. Fluorophore-specific excitation was at the following approximate wavelengths: tryptophan, 290 nm; acrylodan, 390 nm; fluorescein, 485 nm; pyrene, 340 nm; NBD and NBDE, 490 nm; JPW4039, 485 nm; JPW4042, 470 nm; JPW4045, 470 nm.
Assessment of fluorescent biosensor function. Fluorescence emission spectra of bPBP-fluorophore conjugates were recorded in the absence and presence of saturating ligand concentrations. Spectral changes were characterized by four parameters: wavelength shift (the difference between the wavelengths of emission maximum in the unbound and ligand-saturated states), direction of intensity change (increase or decrease in intensity at the wavelengths of maximum emission in the two states), standard intensity change (ΔIstd), and standard ratiometric change (ΔR). ΔIstd is defined as the normalized intensity change relative to the average intensity, determined at the wavelength mid-point between the two emission maxima:
[formula] where λstd=(λmax, unbound+λmax, saturated)/2 and I1, I2 are the fluorescence intensities at λstd of each spectrum respectively (FIG. 4A). ΔR is defined in terms of two emission bands, A1 ([λ1, λ2]) and A2 ([λ3, λ4]) (FIG. 4B):
[formula] where ^∘A1, […] the areas in the absence of ligand, and ^∞A1, ^∞A2 the areas in the presence of saturating ligand. A computer program was used to enumerate ΔR for all possible pairs of wavelength bands in the two spectra, to identify the optimal sensing condition, defined as the maximum value of ΔR. Adjustable parameters of the algorithm, and their values used for ΔRmax quantities reported here, are: step size (2 nm), step width (10 nm), minimum integration area limit (fraction of total: 0.1), and maximum integration area limit (fraction of total: 1).
Turning to B1, the ΔIstd is 0.37.

In the case of B2, the ΔIstd amounted to 0.04.

B3: the ΔIstd is given as 0.00.

As to B4, the ΔIstd turned out to be 0.06.

For B5, the ΔIstd came out at 0.12.

For B6, the ΔIstd is reported as 0.01.

B7: the ΔIstd is given as 0.06.

B8: the ΔIstd is reported as 0.13.

On to B9, for which the ΔIstd is listed as 0.28.

B10: the ΔIstd came out at 0.44.

In the case of B11, the ΔIstd was determined as 0.08.

As to B12, the ΔIstd stood at 0.00.

On to B13, for which the ΔIstd was found to be 0.36.

For B14, the ΔIstd was found to be 0.26.

On to B15, for which the ΔIstd is listed as 0.08.

Consider B16, for which the ΔIstd was 0.81.

For B17, the ΔIstd came to 0.30.

Consider B18, for which the ΔIstd was found to be 0.03.

On to B19, for which the ΔIstd came out at 0.53.

Take B20: the ΔIstd came to 0.10.

Regarding B21, the ΔIstd was determined as 0.36.

As to B22, the ΔIstd is listed as 0.01.

Turning to B23, the ΔIstd is reported as 0.18.

Turning to B24, the ΔIstd turned out to be 0.06.

With B25, the ΔIstd is given as 0.18.

Turning to B26, the ΔIstd is reported as 0.01.

In the case of B27, the ΔIstd is 0.29.

Regarding B28, the ΔIstd is reported as 0.02.

Still in this experiment, the particulars now being: standard ratiometric change, unbound vs ligand-saturated.
B1: the ΔRmax amounted to 1.29.

Take B2: the ΔRmax is 0.77.

Consider B3, for which the ΔRmax came to 0.37.

As to B4, the ΔRmax amounted to 0.27.

Take B5: the ΔRmax was found to be 1.31.

On to B6, for which the ΔRmax was 1.18.

For B7, the ΔRmax is listed as 0.99.

For B8, the ΔRmax turned out to be 0.36.

Regarding B9, the ΔRmax is 1.63.

Regarding B10, the ΔRmax was 0.34.

In the case of B11, the ΔRmax worked out at 0.29.

With B12, the ΔRmax is 1.67.

As to B13, the ΔRmax came to 2.86.

B14: the ΔRmax came to 2.94.

Consider B15, for which the ΔRmax was 1.95.

With B16, the ΔRmax amounted to 1.21.

On to B17, for which the ΔRmax is 1.32.

As for B18, the ΔRmax is 0.21.

For the molecule B19, the ΔRmax worked out at 3.83.

For B20, the ΔRmax is 0.80.

For B21, the ΔRmax turned out to be 3.15.

Consider B22, for which the ΔRmax was determined as 0.97.

Take B23: the ΔRmax is 0.57.

Regarding B24, the ΔRmax was found to be 0.01.

As for B25, the ΔRmax was determined as 4.13.

B26: the ΔRmax is reported as 0.15.

On to B27, for which the ΔRmax was 2.05.

B28: the ΔRmax was 0.82.
